Legend:
Test in all cases: holdup assay
Parameters in all cases: key: below the threshold = too weak to quantify, mostly under pKd 3.1 to 4
[1] = target: NHERF2_2, Q15599
[2] = target: T1, MPP2, Q14168
T1 sequence (Q14168 180-250, limits assumed, looked up): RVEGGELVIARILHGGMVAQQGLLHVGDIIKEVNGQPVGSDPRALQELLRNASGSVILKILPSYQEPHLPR

[3] = target: FRMPD3, Q5JV73
[4] = target: T2, DFNB31_1, Q9P202
T2 sequence (Q9P202 135-233, limits assumed, looked up): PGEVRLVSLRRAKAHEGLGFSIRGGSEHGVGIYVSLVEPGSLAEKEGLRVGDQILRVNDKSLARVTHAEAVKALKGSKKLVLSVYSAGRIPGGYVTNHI

[5] = target: SCRIB_2, Q14160
[6] = target: T3, DLG3_2, Q92796
T3 sequence (Q92796 221-321, limits assumed, looked up): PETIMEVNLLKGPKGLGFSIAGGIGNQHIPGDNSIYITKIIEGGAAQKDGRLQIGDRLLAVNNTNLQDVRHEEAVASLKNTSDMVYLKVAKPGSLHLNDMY

[7] = target: DLG2_2, Q15700
[8] = target: T4, SYNJ2BP, P57105
T4 sequence (P57105 8-110, limits assumed, looked up): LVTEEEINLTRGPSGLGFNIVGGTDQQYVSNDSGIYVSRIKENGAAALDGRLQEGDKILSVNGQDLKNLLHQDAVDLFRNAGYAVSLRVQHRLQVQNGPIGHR

[9] = target: T5, PTPN13_1, Q12923
T5 sequence (Q12923 1088-1188, limits assumed, looked up): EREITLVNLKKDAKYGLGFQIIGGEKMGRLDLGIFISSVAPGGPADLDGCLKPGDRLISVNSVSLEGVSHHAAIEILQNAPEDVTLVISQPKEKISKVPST

[10] = target: SCRIB_1, Q14160
[11] = target: T6, SNTG2, Q9NY99
T6 sequence (Q9NY99 68-166, limits assumed, looked up): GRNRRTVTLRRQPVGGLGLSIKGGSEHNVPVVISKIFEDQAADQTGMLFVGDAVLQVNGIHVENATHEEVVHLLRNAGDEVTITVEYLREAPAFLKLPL

[12] = target: NHERF4_2, Q86UT5
[13] = target: SCRIB_3, Q14160
[14] = target: T7, TJP3_3, O95049
T7 sequence (O95049 375-456, limits assumed, looked up): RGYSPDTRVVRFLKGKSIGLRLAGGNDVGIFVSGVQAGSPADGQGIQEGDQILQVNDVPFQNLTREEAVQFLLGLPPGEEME

[15] = target: LNX1_2, Q8TBB1
[16] = target: T8, ARHGAP21, Q5T5U3
T8 sequence (Q5T5U3 45-169, limits assumed, looked up): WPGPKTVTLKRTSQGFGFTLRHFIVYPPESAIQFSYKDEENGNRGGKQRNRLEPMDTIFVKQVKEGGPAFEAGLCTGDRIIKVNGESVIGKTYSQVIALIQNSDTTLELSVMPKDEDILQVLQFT

[17] = target: T9, SIPA1L2, Q9P2F8
T9 sequence (Q9P2F8 945-1036, limits assumed, looked up): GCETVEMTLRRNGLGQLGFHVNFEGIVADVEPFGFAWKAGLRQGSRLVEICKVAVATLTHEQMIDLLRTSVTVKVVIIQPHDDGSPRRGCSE

[18] = target: T10, SHANK1, Q9Y566
T10 sequence (Q9Y566 658-767, limits assumed, looked up): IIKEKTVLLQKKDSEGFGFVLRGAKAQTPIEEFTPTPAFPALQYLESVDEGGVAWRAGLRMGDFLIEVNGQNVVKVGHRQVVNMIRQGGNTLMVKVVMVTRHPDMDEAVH

[19] = target: T11, LRRC7, Q96NW7
T11 sequence (Q96NW7 1440-1537, limits assumed, looked up): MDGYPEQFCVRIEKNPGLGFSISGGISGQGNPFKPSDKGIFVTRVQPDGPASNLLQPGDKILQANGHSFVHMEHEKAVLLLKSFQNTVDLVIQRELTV

[20] = target: GRASP, Q7Z6J2
[21] = target: PTPN3, P26045
[22] = target: AHNAK1, Q09666
[23] = target: Inadl_6, Q8NI35
[24] = target: T12, DLG3_3, Q92796
T12 sequence (Q92796 374-475, limits assumed, looked up): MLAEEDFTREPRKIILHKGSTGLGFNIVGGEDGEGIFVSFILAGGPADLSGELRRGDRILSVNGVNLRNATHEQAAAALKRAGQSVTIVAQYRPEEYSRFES

[25] = target: PDZRN4_1, Q6ZMN7
[26] = target: DLG4_2, P78352
[27] = plain residues with an end cap or a label only (N-terminal biotin on a linker: ahx)
[28] = plain residues with an end cap or a label only (N-terminal biotin on a linker: ttds)

Measured: pKd

Sequence of SCRIB_1, Q14160 (Q14160 718-814): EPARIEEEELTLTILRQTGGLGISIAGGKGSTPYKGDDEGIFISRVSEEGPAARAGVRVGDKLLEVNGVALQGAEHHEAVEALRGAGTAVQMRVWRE
Sequence of GRASP, Q7Z6J2 (Q7Z6J2 96-193): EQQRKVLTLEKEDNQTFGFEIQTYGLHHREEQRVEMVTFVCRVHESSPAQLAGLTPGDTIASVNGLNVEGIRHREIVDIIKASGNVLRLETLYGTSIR
Sequence of NHERF2_2, Q15599 (Q15599 142-238): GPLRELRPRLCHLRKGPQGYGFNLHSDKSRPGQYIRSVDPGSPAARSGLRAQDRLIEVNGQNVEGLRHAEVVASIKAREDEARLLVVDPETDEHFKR
Sequence of DLG4_2, P78352 (P78352 155-259): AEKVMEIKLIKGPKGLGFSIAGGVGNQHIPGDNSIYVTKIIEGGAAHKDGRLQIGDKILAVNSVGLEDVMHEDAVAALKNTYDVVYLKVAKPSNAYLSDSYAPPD
Sequence of PTPN3, P26045 (P26045 505-587): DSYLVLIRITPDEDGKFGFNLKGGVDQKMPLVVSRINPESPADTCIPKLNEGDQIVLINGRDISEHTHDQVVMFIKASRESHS
Sequence of DLG2_2, Q15700 (Q15700 189-283): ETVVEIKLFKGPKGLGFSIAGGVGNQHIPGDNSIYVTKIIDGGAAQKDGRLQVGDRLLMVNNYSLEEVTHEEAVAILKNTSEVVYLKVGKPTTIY
Sequence of PDZRN4_1, Q6ZMN7 (Q6ZMN7 213-318): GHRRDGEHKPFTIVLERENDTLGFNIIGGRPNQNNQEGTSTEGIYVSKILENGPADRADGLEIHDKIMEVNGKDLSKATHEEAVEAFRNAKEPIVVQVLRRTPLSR
Sequence of NHERF4_2, Q86UT5 (Q86UT5 220-308): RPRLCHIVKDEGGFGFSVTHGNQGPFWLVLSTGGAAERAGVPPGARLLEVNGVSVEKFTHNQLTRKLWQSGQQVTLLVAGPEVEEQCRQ
Sequence of FRMPD3, Q5JV73 (Q5JV73 12-100): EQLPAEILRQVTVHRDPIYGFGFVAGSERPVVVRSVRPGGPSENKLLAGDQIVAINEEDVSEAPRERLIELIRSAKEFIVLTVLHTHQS
Sequence of Inadl_6, Q8NI35 (Q8NI35 1058-1167): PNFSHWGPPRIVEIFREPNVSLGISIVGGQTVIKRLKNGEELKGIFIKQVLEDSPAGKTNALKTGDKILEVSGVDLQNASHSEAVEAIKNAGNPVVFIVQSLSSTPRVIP
Sequence of SCRIB_2, Q14160 (Q14160 857-960): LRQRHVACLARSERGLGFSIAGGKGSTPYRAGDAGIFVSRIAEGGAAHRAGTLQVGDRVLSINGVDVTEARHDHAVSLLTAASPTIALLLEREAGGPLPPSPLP
Sequence of SCRIB_3, Q14160 (Q14160 999-1103): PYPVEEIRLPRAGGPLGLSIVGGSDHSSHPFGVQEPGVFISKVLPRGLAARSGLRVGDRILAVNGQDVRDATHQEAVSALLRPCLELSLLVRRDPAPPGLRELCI
Sequence of AHNAK1, Q09666 (Q09666 4-100): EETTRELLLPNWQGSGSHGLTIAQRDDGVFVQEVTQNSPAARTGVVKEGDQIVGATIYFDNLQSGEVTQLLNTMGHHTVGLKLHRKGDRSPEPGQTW
Sequence of LNX1_2, Q8TBB1 (Q8TBB1 371-470): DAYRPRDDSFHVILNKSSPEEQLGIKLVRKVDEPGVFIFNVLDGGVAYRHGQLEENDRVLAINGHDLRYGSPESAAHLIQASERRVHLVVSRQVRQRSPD

SDSSGQEYSL [KCTD3, Q9Y597]
below the threshold: [1]; [27] | [2]; [27] | [4]; [27] | [5]; [27] | [6]; [27] | [7]; [27] | [8]; [27] | [9]; [27] | [10]; [27] | [11]; [27] | [12]; [27] | [13]; [27] | [14]; [27] | [15]; [27] | [16]; [27] | [17]; [27] | [18]; [27] | [19]; [27] | [20]; [27] | [22]; [27] | [23]; [27] | [24]; [27] | [25]; [27] | [26]; [27]
3.7: [3]; [27]
4.14: [21]; [27]

ESLLLGPSNF [SHROOM4, Q9ULL8]
below the threshold: [1]; [27] | [2]; [27] | [3]; [27] | [4]; [27] | [5]; [27] | [6]; [27] | [7]; [27] | [8]; [27] | [9]; [27] | [10]; [27] | [11]; [27] | [12]; [27] | [13]; [27] | [14]; [27] | [15]; [27] | [16]; [27] | [17]; [27] | [19]; [27] | [21]; [27] | [22]; [27] | [23]; [27] | [24]; [27] | [25]; [27] | [26]; [27]
4.36: [20]; [27]
3.53: [18]; [27]

DKDPHSETAL [TMIGD1, Q6UXZ0]
4.64: [10]; [28] | [25]; [28]
3.53: [3]; [28] | [23]; [28]
4.23: [5]; [28]
3.49: [14]; [28]
5.02: [21]; [28]
3.78: [26]; [28]
5.01: [13]; [28]
4.66: [1]; [28]
below the threshold: [2]; [28] | [6]; [28] | [7]; [28] | [9]; [28] | [12]; [28] | [15]; [28] | [16]; [28] | [17]; [28] | [19]; [28] | [20]; [28] | [22]; [28] | [24]; [28]
4.06: [11]; [28]
3.98: [4]; [28]
4.42: [8]; [28] | [18]; [28]

From publication PMC9482650, “Quantitative fragmentomics allow affinity mapping of interactomes” (Nature Communications, 2022)
